In publication doi:10.1101/2020.12.02.407882:
Each block holds one substance with its values, some of them ahead of it.

Experiments:
[1] = biological target: 1G4 TCR, wild type (TCRαβ with HA-tagged β); experiment: co-IP
[2] = biological target: QM-α TCR (1G4 variant with mutations in αCDR2, βCDR2 and βCDR3; TCRαβ with HA-tagged β); experiment: pull-down
[3] = biological target: 1G4 TCR carrying βA291 (TCRαβ with HA-tagged β Y291A); experiment: co-IP

Substance: CD3ζ (ζζ dimer), endogenous in J76 Jurkat cells (from UniProt P20963-1 22-164) (natural protein)
reduction of ζ/β2 ratio, (9V-A2)4-His-bound against unliganded QM-α [2]: 40% | ζ/β2 ratio against 1G4-WT (ratio, 1G4-WT = 1) [3]: 0.2

Substance: CD3γ, endogenous in J76 Jurkat cells (from UniProt P09693 23-182) (natural protein)
reduction of recovery (γ/βT) against 1G4-WT [3]: 40%

Substance: CD3ζ carrying ζA41 (I41A), expressed in J76-1G4WT-ζKO (from UniProt P20963-1 22-164) (natural protein)
ζ/β2 ratio against ζWT (ratio, ζWT = 1) [1]: 0.25

Substance: CD3δ, endogenous in J76 Jurkat cells (from UniProt P04234 22-171) (natural protein)
reduction of recovery (δ/βT) against 1G4-WT [3]: 10%

Continued, values first:

ζ/β2 ratio against ζWT (ratio, ζWT = 1) [1]: 0.05
Substance: CD3ζ carrying ζA38 (I38A), expressed in J76-1G4WT-ζKO (from UniProt P20963-1 22-164) (natural protein)

ε/βT ratio against 1G4-WT (ratio, 1G4-WT = 1) [3]: 0.5
Substance: CD3ε, endogenous in J76 Jurkat cells (from UniProt P07766 23-207) (natural protein)
